The series has as its target Tat peptide (47-57) (Human immunodeficiency virus 1). Nature of the series: EMSA; non-cognate RNA; higher affinity than CPP11; 10 mM potassium phosphate pH 7.5, 100 mM NaCl. The conditions noted are these: protein: synthetic; tags: chemically synthesized peptide; stem-loop.

On to GGACCUGGUAUGGGCGCAGCGCAAGCUGACGGUACAGGCCAGGUCC (ssRNA) [wild-type RRE IIB RNA], for which the binding result is “binds”.
